According to patent US5451506A, “Oncostatin M and novel compositions having anti-neoplastic activity” (Oncogen Limited Partnership, priority 1993, dated 1995):

Tests used:
[1] = biological target: T1, Oncostatin M receptor on A375 or A549 cells (Homo sapiens, UniProt P40189+Q99650); experiment: Specificity of Oncostatin M receptor: competition for binding of 125I-Oncostatin M; details: 125I-Oncostatin M 30-50 ng/ml
T1 construct: endogenous in cells; host or cells: A375 or A549 cells (intact monolayers)
T1 sequence (Q99650 28-979): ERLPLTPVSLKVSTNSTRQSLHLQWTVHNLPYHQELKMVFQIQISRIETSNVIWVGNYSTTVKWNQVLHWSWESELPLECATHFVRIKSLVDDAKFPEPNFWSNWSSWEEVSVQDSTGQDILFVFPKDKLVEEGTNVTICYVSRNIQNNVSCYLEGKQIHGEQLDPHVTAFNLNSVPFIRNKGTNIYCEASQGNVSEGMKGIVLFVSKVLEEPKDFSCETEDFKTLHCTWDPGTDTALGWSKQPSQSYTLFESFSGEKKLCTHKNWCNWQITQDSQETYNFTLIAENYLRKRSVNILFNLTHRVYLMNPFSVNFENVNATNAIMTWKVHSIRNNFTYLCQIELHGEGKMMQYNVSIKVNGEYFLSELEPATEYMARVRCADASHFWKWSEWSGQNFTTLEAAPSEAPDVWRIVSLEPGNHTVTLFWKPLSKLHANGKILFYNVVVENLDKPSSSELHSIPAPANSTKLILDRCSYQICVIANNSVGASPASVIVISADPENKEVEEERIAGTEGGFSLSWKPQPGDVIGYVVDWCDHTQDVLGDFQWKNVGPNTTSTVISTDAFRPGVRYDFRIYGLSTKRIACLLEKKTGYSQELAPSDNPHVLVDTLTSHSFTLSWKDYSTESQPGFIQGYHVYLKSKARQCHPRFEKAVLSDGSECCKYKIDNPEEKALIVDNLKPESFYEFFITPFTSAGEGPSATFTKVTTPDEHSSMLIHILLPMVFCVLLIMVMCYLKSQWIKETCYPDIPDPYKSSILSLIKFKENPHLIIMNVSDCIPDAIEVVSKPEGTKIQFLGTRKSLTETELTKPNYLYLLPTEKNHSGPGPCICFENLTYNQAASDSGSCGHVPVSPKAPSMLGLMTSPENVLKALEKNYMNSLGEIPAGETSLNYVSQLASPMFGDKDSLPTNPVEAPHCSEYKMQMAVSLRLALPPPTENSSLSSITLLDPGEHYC
T1 sequence (P40189 23-918): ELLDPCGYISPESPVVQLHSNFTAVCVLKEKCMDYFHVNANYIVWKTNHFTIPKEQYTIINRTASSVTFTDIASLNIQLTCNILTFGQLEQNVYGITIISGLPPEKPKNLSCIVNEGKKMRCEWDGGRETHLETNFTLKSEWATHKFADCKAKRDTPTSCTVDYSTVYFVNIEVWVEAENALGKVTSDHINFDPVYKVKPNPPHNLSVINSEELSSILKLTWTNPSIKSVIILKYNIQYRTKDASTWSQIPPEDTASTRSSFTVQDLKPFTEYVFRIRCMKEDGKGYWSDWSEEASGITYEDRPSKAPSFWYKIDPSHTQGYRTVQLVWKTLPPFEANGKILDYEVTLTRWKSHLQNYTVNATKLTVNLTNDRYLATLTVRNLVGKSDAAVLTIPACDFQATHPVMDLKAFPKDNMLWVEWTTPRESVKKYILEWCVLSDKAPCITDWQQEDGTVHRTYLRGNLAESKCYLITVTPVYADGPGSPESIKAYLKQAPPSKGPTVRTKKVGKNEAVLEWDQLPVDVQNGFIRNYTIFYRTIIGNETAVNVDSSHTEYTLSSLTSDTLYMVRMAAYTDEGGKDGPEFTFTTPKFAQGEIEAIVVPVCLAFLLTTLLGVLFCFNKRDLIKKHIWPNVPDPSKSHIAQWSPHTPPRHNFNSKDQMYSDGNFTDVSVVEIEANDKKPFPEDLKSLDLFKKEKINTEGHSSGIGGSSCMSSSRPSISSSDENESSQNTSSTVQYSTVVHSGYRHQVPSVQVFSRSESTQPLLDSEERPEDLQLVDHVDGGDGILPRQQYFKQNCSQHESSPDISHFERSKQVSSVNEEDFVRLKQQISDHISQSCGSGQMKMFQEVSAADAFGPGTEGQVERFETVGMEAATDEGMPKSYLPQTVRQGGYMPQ
Description: The cell line of interest was plated in 48-well plates at a density of 2×10^5 cells/well and maintained at 37° C. for 16-24 hours before initiation of the assay. Cell monolayers were then washed once with Binding buffer (Linsley et al., Biochemistry (1986) 25:2978-2986). To measure total binding, ^125 I-Oncostatin M was added at concentrations ranging from 0.5-100 ng/ml. To measure non-specific binding, unlabeled Oncostatin M was added simultaneously with the ^125 I-Oncostatin M to replicate plates at a concentration 20- to 100-fold higher than the concentration of ^125 I-Oncostatin M. Binding was allowed to proceed for 2-5 hours at 23°, then the monolayers were washed four times with Binding Buffer, cell-bound radioactivity was solubilized with 1N NaOH and was counted in a gamma counter. Specific binding was calculated by subtracting the non-specific binding from total binding. The dissociation constant (Kd) and binding capacity was determined by Scatchard analysis (Scatchard, Ann. N.Y. Acad. Sci. (1949) 51:660).
The specificity of the Oncostatin M receptor was determined by evaluating the ability of several other polypeptide growth factors to compete for binding of ^125 I-Oncostatin M (at 30-50 ng/ml) to A375 or A549 cells.

[2] = system: A375 cells; experiment: Growth inhibition assay (A375 proliferation; synergy tests); assay type: cell-based, human; details: 3.4 U/ml, alone
Description: A375 melanoma cells (4×10^3 cells/50 μl), Mv1Lu mink lung epithelial cells (3.5×10^3 cells/50 μl), or other cell line of interest at an appropriate cell density were subcultured for four hours on flat-bottomed 96-well tissue culture plates (Costar 3596, Cambridge, Mass.) in growth medium comprising Dulbecco's modified Eagle's medium (DMEM), supplemented with 10% heat-in-activated fetal bovine serum, and P/S. Test samples to be assayed for growth inhibition were diluted in growth medium and assayed in triplicate with 50 μl of the diluted sample added to each well. The cells were incubated for 72 hours at 37° C.
The growth inhibitory activity of highly purified TGF-β1, recombinant gamma-interferon (rIFN-γ), and Oncostatin M on A375 cells was determined, and possible synergy between TGF-β1 and Oncostatin M, TGF-β1 and rIFN-γ, and Oncostatin M and rIFN-γ in inhibiting A375 proliferation was tested. […] is expressed in units of Mv1Lu growth inhibitory activity, rIFN-γ in units of anti-viral activity and Oncostatin M in units of A375 growth inhibitory activity. Concentrations of TGF-β1 (1-30 U/ml) and Oncostatin M (0.5-10 U/ml) were chosen which caused either no or only minimal growth inhibition when tested individually.

[3] = system: A375 cells; experiment: Growth inhibitory assay of recombinant Oncostatin M (crystal violet staining); assay type: cell-based, human; details: for Oncostatin M activity in medium of transfected COS cells: further test, one unit inhibits growth of A375 cells by 50%; for Expression Level Units/ml (growth inhibitory activity): medium or extract of the expressing host cells (COS, CHO without methotrexate amplification, sf9)
Description: Biological activity of recombinant Oncostatin M was assessed by a growth inhibitory assay. Briefly, aliquots of extracts from transformed cells or medium from cell cultures were lyophilized with 20 μg bovine serum albumin as a carrier protein, resuspended in DMEM containing 10% fetal calf serum, and diluted serially before addition to 96-well cultures containing A375 cells (3.5×10^3 cells/well). […] Recombinant Oncostatin M was prepared using the following expression systems: E. coli, COS cells, CHO and insect cells (sf9).

Molecule: Lys^3 bombesin
- Inhibitory activity towards binding of 125I-Oncostatin M ([1]; competitor 50 μM): None of these showed significant inhibitory activity

Molecule: TGF-β1: highly purified transforming growth factor-β1, units of Mv1Lu growth inhibitory activity
- Inhibition of cell growth [2]: 7%

Molecule: Tyr^3 -bombesin
- Inhibitory activity towards binding of 125I-Oncostatin M ([1]; competitor 1 μM): None of these showed significant inhibitory activity

Molecule: epidermal growth factor: polypeptide growth factor tested as competitor
- Inhibitory activity towards binding of 125I-Oncostatin M ([1]; competitor 2.5 μg/ml): None of these showed significant inhibitory activity

Molecule: fibroblast growth factor
- Inhibitory activity towards binding of 125I-Oncostatin M ([1]; competitor 2.5 μg/ml): None of these showed significant inhibitory activity

Molecule: formyl-M-L-F
- Inhibitory activity towards binding of 125I-Oncostatin M ([1]; competitor 50 μM): None of these showed significant inhibitory activity

Molecule: interleukin 1-β: polypeptide growth factor tested as competitor
- Inhibitory activity towards binding of 125I-Oncostatin M ([1]; competitor 50 μg/ml): None of these showed significant inhibitory activity

B1: gamma interferon: gamma-interferon; recombinant in the synergy tests (protein, UniProt P01579 24-161, looked up)
Interferon gamma: QDPYVKEAENLKKYFNAGHSDVADNGTLFLGILKNWKEESDRKIMQSQIVSFYFKLFKNFKDDQSIQKSVETIKEDMNVKFFNSNKKKRDDFEKLTNYSVTDLNVQRKAIHELIQVMAELSPAAKTGKRKRSQMLFRG
- Inhibitory activity towards binding of 125I-Oncostatin M ([1]; competitor 2.5 μg/ml): None of these showed significant inhibitory activity

B2: pH3M/βOncM: Oncostatin M with βTGF leader sequence fused to the coding sequence, secreted into medium (protein, UniProt P13725 26-221, looked up)
Oncostatin-M: AAIGSCSKEYRVLLGQLQKQTDLMQDTSRLLDPYIRIQGLDVPKLREHCRERPGAFPSEETLRGLGRRGFLQTLNATLGCVLHRLADLEQRLPKAQDLERSGLNIEDLEKLQMARPNILGLRNNIYCMAQLLDNSDTAEPTKAGRGASQPPTPTPASDAFQRKLEGCRFLHGYHRFMHSVGRVFSKWGESPNRSRR
modifications: expressed with TGF-beta leader sequence
- Sp. Act ([3]; E. coli fusion proteins purified and refolded before testing): > 10,000 GIA units/ug protein
- Oncostatin M activity in medium of transfected COS cells [3]: approximately 18,000 units/ml
- Expression Level Units/ml (growth inhibitory activity) [3]: 56,000 GIA units/ml

B3: pSV2βOncM/dhfr: Human Oncostatin M gene fused to βTGF leader sequence, with mouse dhfr gene (protein, UniProt P13725 26-221, looked up)
Oncostatin-M: AAIGSCSKEYRVLLGQLQKQTDLMQDTSRLLDPYIRIQGLDVPKLREHCRERPGAFPSEETLRGLGRRGFLQTLNATLGCVLHRLADLEQRLPKAQDLERSGLNIEDLEKLQMARPNILGLRNNIYCMAQLLDNSDTAEPTKAGRGASQPPTPTPASDAFQRKLEGCRFLHGYHRFMHSVGRVFSKWGESPNRSRR
modifications: expressed with TGF-beta leader sequence
- Expression Level Units/ml (growth inhibitory activity) [3]: 10,000 GIA units/ml

B4: plasmid pH3M containing just the Oncostatin M sequences: pH3M containing Oncostatin M sequences without the fused βTGF leader sequence (protein, UniProt P13725 26-221, looked up)
Oncostatin-M: AAIGSCSKEYRVLLGQLQKQTDLMQDTSRLLDPYIRIQGLDVPKLREHCRERPGAFPSEETLRGLGRRGFLQTLNATLGCVLHRLADLEQRLPKAQDLERSGLNIEDLEKLQMARPNILGLRNNIYCMAQLLDNSDTAEPTKAGRGASQPPTPTPASDAFQRKLEGCRFLHGYHRFMHSVGRVFSKWGESPNRSRR
- Oncostatin M activity in medium of transfected COS cells [3]: No activity was detected

B5: pAc/OncM: Oncostatin M expressed under control of the baculovirus polyhedrin gene regulators (protein, UniProt P13725 26-221, looked up)
Oncostatin-M: AAIGSCSKEYRVLLGQLQKQTDLMQDTSRLLDPYIRIQGLDVPKLREHCRERPGAFPSEETLRGLGRRGFLQTLNATLGCVLHRLADLEQRLPKAQDLERSGLNIEDLEKLQMARPNILGLRNNIYCMAQLLDNSDTAEPTKAGRGASQPPTPTPASDAFQRKLEGCRFLHGYHRFMHSVGRVFSKWGESPNRSRR
modifications: baculovirus-expressed
notes: Oncostatin M expressed under control of the baculovirus polyhedrin gene regulators
- Expression Level Units/ml (growth inhibitory activity) [3]: 1,800 GIA units/ml
